Test results published in article PMC4628882.

What was measured:
[1] = target: mouse melanocortin 1 receptor (mouse) (UniProt Q01727)
[2] = target: mouse melanocortin 4 receptor (mouse) (UniProt P56450)
[3] = target: mouse melanocortin 5 receptor (mouse) (UniProt P41149)
[4] = target: mouse melanocortin 3 receptor (mouse) (UniProt P33033)
Chain of UniProt P33033 (P33033 whole entry): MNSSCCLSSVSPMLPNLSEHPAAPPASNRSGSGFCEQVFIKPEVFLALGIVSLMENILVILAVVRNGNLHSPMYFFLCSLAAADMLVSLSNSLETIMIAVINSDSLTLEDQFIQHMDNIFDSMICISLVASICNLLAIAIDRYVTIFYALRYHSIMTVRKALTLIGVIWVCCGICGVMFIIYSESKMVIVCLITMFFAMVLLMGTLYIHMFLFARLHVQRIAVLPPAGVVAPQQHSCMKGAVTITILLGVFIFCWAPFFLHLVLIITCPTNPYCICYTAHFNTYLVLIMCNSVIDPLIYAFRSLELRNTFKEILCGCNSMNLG

Chain of UniProt Q01727 (Q01727 whole entry): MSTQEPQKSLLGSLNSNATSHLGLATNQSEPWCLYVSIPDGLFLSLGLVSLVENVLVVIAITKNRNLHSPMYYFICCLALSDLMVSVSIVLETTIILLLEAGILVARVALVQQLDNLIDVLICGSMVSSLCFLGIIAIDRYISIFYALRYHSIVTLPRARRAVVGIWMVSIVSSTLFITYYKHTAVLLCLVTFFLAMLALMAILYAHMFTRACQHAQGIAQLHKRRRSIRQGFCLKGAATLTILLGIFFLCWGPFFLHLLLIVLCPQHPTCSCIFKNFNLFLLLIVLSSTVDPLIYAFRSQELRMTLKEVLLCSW
Chain of UniProt P56450 (P56450 whole entry): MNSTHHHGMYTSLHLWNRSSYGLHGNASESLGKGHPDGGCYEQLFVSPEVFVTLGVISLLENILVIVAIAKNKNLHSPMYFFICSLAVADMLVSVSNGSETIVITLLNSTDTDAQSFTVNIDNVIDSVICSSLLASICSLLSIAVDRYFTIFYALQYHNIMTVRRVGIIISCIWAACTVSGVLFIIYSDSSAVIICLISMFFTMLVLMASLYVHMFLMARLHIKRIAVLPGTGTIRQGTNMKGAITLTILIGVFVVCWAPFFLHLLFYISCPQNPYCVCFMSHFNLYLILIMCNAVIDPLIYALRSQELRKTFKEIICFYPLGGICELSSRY
Chain of UniProt P41149 (P41149 whole entry): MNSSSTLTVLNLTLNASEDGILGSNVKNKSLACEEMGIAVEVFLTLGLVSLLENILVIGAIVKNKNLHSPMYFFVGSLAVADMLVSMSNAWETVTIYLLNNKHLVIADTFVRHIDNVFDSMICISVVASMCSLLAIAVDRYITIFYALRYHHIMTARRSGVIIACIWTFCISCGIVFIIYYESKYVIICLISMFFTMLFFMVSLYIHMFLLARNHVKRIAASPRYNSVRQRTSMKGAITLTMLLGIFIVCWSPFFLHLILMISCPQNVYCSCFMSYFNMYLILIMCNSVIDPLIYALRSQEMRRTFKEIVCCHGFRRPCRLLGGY

agonist EC50, AlphaScreen cAMP assay on stably transfected HEK293 cells [1] [nM]	agonist EC50, AlphaScreen cAMP assay on stably transfected HEK293 cells [2] [nM]	agonist EC50, AlphaScreen cAMP assay on stably transfected HEK293 cells [3] [nM]	agonist EC50, AlphaScreen cAMP assay on stably transfected HEK293 cells [4] [nM]	Substance
0.14	2.9	0.51	0.5	α-MSH (peptide)
41000	–	–	–	ClpB(535-548) (from UniProt P63284 535-548) (peptide)
